Here are results for 17 molecules from patent US20250388664A1 (BIOARCTIC, published 2025).

The chains are these.
T1: truncated cTfR1 of SEQ ID NO:123 (cynomolgus monkey, UniProt Q5RDH6 122-760 (Pongo abelii entry))
T1 construct: also called cynomolgus TfR1
T1 chain: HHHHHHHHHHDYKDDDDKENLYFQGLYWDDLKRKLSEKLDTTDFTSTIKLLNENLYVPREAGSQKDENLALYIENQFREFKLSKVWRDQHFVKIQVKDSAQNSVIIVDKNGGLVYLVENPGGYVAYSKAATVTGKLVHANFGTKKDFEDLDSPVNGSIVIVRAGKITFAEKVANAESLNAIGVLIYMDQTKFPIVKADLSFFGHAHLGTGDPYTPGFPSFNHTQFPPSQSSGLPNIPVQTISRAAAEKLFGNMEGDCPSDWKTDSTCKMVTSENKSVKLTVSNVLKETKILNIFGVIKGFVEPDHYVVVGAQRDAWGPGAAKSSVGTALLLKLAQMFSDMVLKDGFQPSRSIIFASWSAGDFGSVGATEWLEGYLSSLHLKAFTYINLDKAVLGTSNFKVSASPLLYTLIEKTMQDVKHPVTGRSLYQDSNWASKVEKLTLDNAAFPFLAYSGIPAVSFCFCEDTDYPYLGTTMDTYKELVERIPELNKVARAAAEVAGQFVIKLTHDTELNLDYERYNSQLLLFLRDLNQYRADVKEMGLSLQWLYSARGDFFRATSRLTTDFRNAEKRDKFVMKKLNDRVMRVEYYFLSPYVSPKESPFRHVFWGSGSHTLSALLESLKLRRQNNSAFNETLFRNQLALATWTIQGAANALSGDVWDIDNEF

B1: h26D3-HC6_DS, VL-first (scFv)
scFv: DIQMTQSPSSVSASVGDRVTITCKSSQSLLYSTNQKNYLAWYQQKPGKAPKLLIYWASTRESGVPSRFSGSGSGTDFTLTISSLQPEDFATYYCQQYFIYPRTFGCGTKVEIKGGGGSGGGGSGGGGSGGGGSEVQLVQSGAEVKKPGSSVKVSCKASGYIFTDYNMDWVRQAPGQCLEWIGDINPDADTTSYNEKFKGRATLTVDKSTSTAYMELSSLRSEDTAVYYCARGGYSGSSYYHPMDYWGQGTLVTVSS
B2: h26D3 HC6 DS T91A (scFv)
scFv: HHHHHHGGGGSGGGGSGGGGSGGGGSDIQMTQSPSSVSASVGDRVTITCKSSQSLLYSTNQKNYLAWYQQKPGKAPKLLIYWASTRESGVPSRFSGSGSGTDFTLTISSLQPEDFATYYCQQYFIYPRTFGCGTKVEIKGGGGSGGGGSGGGGSGGGGSEVQLVQSGAEVKKPGSSVKVSCKASGYIFTDYNMDWVRQAPGQCLEWIGDINPDADTTSYNEKFKGRATLTVDKSTSTAYMELSSLRSEDAAVYYCARGGYSGSSYYHPMDYWGQGTLVTVSS
notes: also called h26D3 DS T91A
B3: h26D3 HC6 DS L118S (scFv)
scFv: B2 scFv with A250T, L277S
notes: also called h26D3 DS L118S
B4: h26D3 HC6 DS T120K (scFv)
scFv: B2 scFv with A250T, T279K
notes: also called h26D3 DS T120K
B5: h26D3 HC6 DS T91S S122K (scFv)
scFv: B2 scFv with A250S, S281K
notes: also called h26D3 DS T91S S122K
B6: h26D3 HC6 DS V11R T120K (scFv)
scFv: B2 scFv with V170R, A250T, T279K
notes: also called h26D3 DS V11R T120K
B7: h26D3 HC6 DS V11R T91A (scFv)
scFv: B2 scFv with V170R
notes: also called h26D3 DS V11R T91A
B8: h26D3 HC6 DS T91S T120K (scFv)
scFv: B2 scFv with A250S, T279K
notes: also called h26D3 DS T91S T120K
B9: h26D3 HC6 DS S16E L118S (scFv)
scFv: B2 scFv with S175E, A250T, L277S
notes: also called h26D3 DS S16E L118S
B10: h26D3 HC6 DS S122K (scFv)
scFv: B2 scFv with A250T, S281K
notes: also called h26D3 DS S122K
B11: h26D3 HC6 DS V11R (scFv)
scFv: B2 scFv with V170R, A250T
notes: also called h26D3 DS V11R
B12: h26D3 HC6 DS S16E (scFv)
scFv: B2 scFv with S175E, A250T
notes: also called h26D3 DS S16E
B13: h26D3 variant HC2 Fab (Fab, V domains shown)
VH: EVQLVQSGAEVKKPGSSVKVSCKASGYIFTDANMDWVRQAPGQGLEWIGDINPDYDTTSYNEKFKGRATLTVDKSTSTAYMELSSLRSEDTAVYYCARGGYSGSSYYHPMDYWGQGTLVTVSS
VL: DIQMTQSPSSVSASVGDRVTITCKSSQSLLYSTNQKNYLAWYQQKPGKAPKLLIYWASTRESGVPSRFSGSGSGTDFTLTISSLQPEDFATYYCQQYFIYPRTFGQGTKVEIK
notes: Single-mutant His-tagged Fab; also called Y32A
B14: h26D3 variant HC4 Fab (Fab, V domains shown)
VH: B13 VH with A32Y, D50A
VL: B13 VL
notes: Single-mutant His-tagged Fab; also called D50A
B15: h26D3 variant HC5 Fab (Fab, V domains shown)
VH: B13 VH with A32Y, D54A
VL: B13 VL
notes: Single-mutant His-tagged Fab; also called D54A
B16: h26D3 variant HC3 Fab (Fab, V domains shown)
VH: B13 VH with A32Y, D35A
VL: B13 VL
notes: Single-mutant His-tagged Fab; also called D35A
B17: h26D3 variant HC6 Fab (Fab, V domains shown)
VH: B13 VH with A32Y, Y55A
VL: B13 VL
notes: Single-mutant His-tagged Fab; also called Y55A

One may read the Kd as the equilibrium constant for the complex coming apart. The term koff denotes the first-order rate constant of dissociation. Higher therefore signals a short-lived complex. By kon is commonly meant the rate constant with which the complex forms.

Changes are numbered by the printed parent chain. Names may count otherwise.

The target of the first experiment is T2, truncated hTfR1 of SEQ ID NO:122 (human, UniProt P02786 122-760).
T2 construct: also called human TfR1; Human TfR1
T2 sequence (P02786 other isoform, or with tags, fused parts or gaps limits assumed): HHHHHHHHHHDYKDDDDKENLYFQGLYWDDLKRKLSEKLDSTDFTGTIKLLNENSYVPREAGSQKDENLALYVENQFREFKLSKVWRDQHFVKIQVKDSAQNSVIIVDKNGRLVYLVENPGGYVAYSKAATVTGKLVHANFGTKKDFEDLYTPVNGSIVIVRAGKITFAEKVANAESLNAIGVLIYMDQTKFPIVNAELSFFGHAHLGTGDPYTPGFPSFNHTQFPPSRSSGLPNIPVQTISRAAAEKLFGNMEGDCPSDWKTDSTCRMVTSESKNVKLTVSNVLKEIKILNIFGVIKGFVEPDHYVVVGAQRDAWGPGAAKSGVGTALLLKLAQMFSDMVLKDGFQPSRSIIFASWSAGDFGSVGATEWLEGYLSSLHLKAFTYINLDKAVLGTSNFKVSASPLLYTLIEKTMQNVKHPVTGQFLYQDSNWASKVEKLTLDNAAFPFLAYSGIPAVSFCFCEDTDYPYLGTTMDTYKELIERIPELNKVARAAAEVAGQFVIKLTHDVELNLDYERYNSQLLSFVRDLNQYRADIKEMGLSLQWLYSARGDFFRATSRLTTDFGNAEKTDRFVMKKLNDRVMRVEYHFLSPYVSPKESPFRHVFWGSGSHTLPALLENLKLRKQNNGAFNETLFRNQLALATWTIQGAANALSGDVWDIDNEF
The experiment in a line: SPR, FLAG-captured TfR1, scFv injected, 1:1 fit. The method, then: (§1) The interaction was measured using the single cycle kinetics method with a contact time of 120 s at a flow rate of 30 μl/min followed by a dissociation time of 600 s. Regeneration of the surface between cycles was done by injecting 10 mM glycine-HCl, pH 1.7. The binding data was fitted to a 1:1 interaction model. The scFv variants were diluted in HBS-EP+ (Cytiva. #BR100669). Experiments were performed at 25° C.
Molecule B1 had a Kd of 68.9 nM, a koff of 0.00434 s⁻¹ and a kon of 63500 M⁻¹ s⁻¹.
In the same order, the values of B2 are 59.7 nM, 0.00388 s⁻¹ and 65000 M⁻¹ s⁻¹.
In the same order, the values of B3 are 60 nM, 0.00393 s⁻¹ and 66200 M⁻¹ s⁻¹.
In the same order, the values of B4 are 59.3 nM, 0.00429 s⁻¹ and 75100 M⁻¹ s⁻¹.
Turning to B5, the Kd came to 50.5 nM, the koff is 0.0038 s⁻¹ and the kon worked out at 76200 M⁻¹ s⁻¹.
In turn, B6 gave an equilibrium dissociation constant (Kd) of 60.2 nM, a koff of 0.00441 s⁻¹ and a kon of 73300 M⁻¹ s⁻¹.
B7 returned a Kd of 61.3 nM, a koff of 0.00458 s⁻¹ and an on-rate (kon) of 76100 M⁻¹ s⁻¹.
For B8, the Kd is 66.2 nM, the off-rate (koff) was found to be 0.00409 s⁻¹ and the kon was found to be 61900 M⁻¹ s⁻¹.
In the same order, the values of B9 are 67.1 nM, 0.00387 s⁻¹ and 57800 M⁻¹ s⁻¹.
On to B10, for which binding was put at a Kd of 53.7 nM, the koff turned out to be 0.00407 s⁻¹ and the on-rate constant (kon) was 76400 M⁻¹ s⁻¹.
B11: the Kd was found to be 54 nM, the koff amounted to 0.00465 s⁻¹ and the on-rate (kon) is 90400 M⁻¹ s⁻¹.
In the same order, the values of B12 are 68.9 nM, 0.00397 s⁻¹ and 57700 M⁻¹ s⁻¹.

The next experiment has as its target T1, truncated cTfR1 of SEQ ID NO:123. The experiment in a line: SPR, FLAG-captured TfR1, scFv injected, 1:1 fit. The method, then: as §1
(In general: SPR reads the build-up and loss of mass on a sensor chip optically.)
In the case of B1, the affinity, expressed as Kd, was 246 nM; the koff turned out to be 0.0114 s⁻¹; the kon worked out at 47600 M⁻¹ s⁻¹.
In the same order, the values of B2 are 240 nM, 0.0111 s⁻¹ and 46200 M⁻¹ s⁻¹.
Turning to B3, binding was characterised by a dissociation constant (Kd) of 243 nM, the dissociation rate constant (koff) is 0.0107 s⁻¹ and the kon amounted to 44000 M⁻¹ s⁻¹.
In the same order, the values of B4 are 197 nM, 0.0113 s⁻¹ and 57400 M⁻¹ s⁻¹.
In the same order, the values of B5 are 221 nM, 0.0108 s⁻¹ and 48600 M⁻¹ s⁻¹.
In the same order, the values of B6 are 201 nM, 0.0124 s⁻¹ and 61300 M⁻¹ s⁻¹.
As to B7, binding was put at a Kd of 206 nM, the off-rate (koff) was found to be 0.012 s⁻¹ and the on-rate (kon) is 58100 M⁻¹ s⁻¹.
For the molecule B8, the Kd came to 245 nM, the off-rate (koff) stood at 0.0115 s⁻¹ and the on-rate (kon) worked out at 46700 M⁻¹ s⁻¹.
In the same order, the values of B9 are 261 nM, 0.0109 s⁻¹ and 41700 M⁻¹ s⁻¹.
Molecule B10 displayed an equilibrium dissociation constant (Kd) of 170 nM, a koff of 0.0103 s⁻¹ and an association rate constant (kon) of 61500 M⁻¹ s⁻¹.
In the same order, the values of B11 are 222 nM, 0.0113 s⁻¹ and 51500 M⁻¹ s⁻¹.
In the same order, the values of B12 are 277 nM, 0.0121 s⁻¹ and 43800 M⁻¹ s⁻¹.

A further experiment has as its target T2, truncated hTfR1 of SEQ ID NO:122. The experiment in a line: SPR follow-up, 4 replicates, FLAG-captured hTfR1, scFv injected. The method, then:
as §1
The selected molecules were produced as described above.
Molecule B1 came in with a dissociation constant (Kd) of 66.2 nM, an off-rate constant (koff) of 0.00439 s⁻¹ and a kon of 67100 M⁻¹ s⁻¹.
In the same order, the values of B4 are 71.3 nM, 0.00478 s⁻¹ and 67300 M⁻¹ s⁻¹.
Consider B5, for which binding was put at a Kd of 69.5 nM, the dissociation rate constant (koff) stood at 0.00463 s⁻¹ and the kon amounted to 67000 M⁻¹ s⁻¹.
In the same order, the values of B6 are 48.6 nM, 0.00449 s⁻¹ and 95700 M⁻¹ s⁻¹.
On to B7, for which the equilibrium dissociation constant (Kd) was determined as 58.7 nM, the off-rate (koff) came out at 0.00419 s⁻¹ and the kon came out at 74900 M⁻¹ s⁻¹.
In the same order, the values of B8 are 55.5 nM, 0.00465 s⁻¹ and 87200 M⁻¹ s⁻¹.
On to B10, for which binding was characterised by a dissociation constant (Kd) of 62.6 nM, the off-rate (koff) came to 0.00482 s⁻¹ and the kon was found to be 85800 M⁻¹ s⁻¹.

Another experiment shares this target. The experiment in a line: SPR, TfR1 amine-coupled, Fab injected, 1:1 fit. On the procedure: (§2) Binding of the purified Fabs to human and cynomolgus TfR1 was evaluated using either SPR (FIG. 44) or indirect ELISA (FIG. 45). For SPR, a Biacore 8K instrument (Cytiva) was used. […] The Fabs were injected over the chip using a 2-fold dilution series in four steps starting at 100 nM. The interaction was measured using the single cycle kinetics method with a contact time of 120 s at a flow rate of 30 μl/min followed by a dissociation time of 1000 s. Regeneration of the surface between cycles was done by injecting 3M MgCl₂. The binding data was fitted to a 1:1 interaction model. The Fabs were diluted in HBS-EP+ (Cytiva, #BR100669). Experiments were performed at 25° C.
B13 showed a dissociation constant (Kd) of 8.7 nM.
B14 displayed a Kd of 5.1 nM.
Still for that read-out and setting: to B15 belongs 20 nM; to B16, 16 nM; to B17, 156 nM.

The target in another experiment is T1, truncated cTfR1 of SEQ ID NO:123. The experiment in a line: SPR, TfR1 amine-coupled, Fab injected, 1:1 fit. On the procedure: as §2
B13 yielded a Kd of 12 nM.
The same measure, in the same setting: to B14 belongs 8 nM.
For B15, the dissociation constant (Kd) came to 39 nM.
Still for that read-out and setting: to B16 belongs 168 nM; to B17, 164 nM.
